Results: patent publication US20220275067A1 (PROTHENA BIOSCIENCES, published 2022)
Where no end group is shown, it is not given here. The star is where a group is joined. Biotin = O=C1N[C@H]2[C@H](CS[C@H]2CCCCC(=O)*)N1

T1: biotinylated 15 amino acid tau peptide, residues 383-397 (human)
T1 peptide: Biotin-KAKTDHGAEIVYKSP

T2: biotinylated 15 amino acid tau peptide, residues 302-316 (human)
T2 peptide: Biotin-GGGSVQIVYKPVDLS


What was measured:
[1] = target: pHrodo-labeled tau P301L soluble oligomer, P10636; experiment: cell-based or functional assay
[2] = target: T1, biotinylated 15 amino acid tau peptide, …; experiment: ELISA, biotinylated peptide on streptavidin plate
Experimental: (§1) Peptides contained 15 amino acids, with a 5 amino acid overlap. To enable binding to a streptavidin surface, peptides also contained an N-terminal biotin. Peptides were incubated on a streptavidin-coated plate, and the plate was blocked with 1% BSA in 1× PBS. After washing, antibodies were incubated on the plates for 1 hour at room temperature and washed. Plates were then coated with goat anti-mouse horseradish peroxidase (HRP), and washed. Plates were developed with OPD, and absorbance was read at 490 nm. […]

[3] = target: T2, biotinylated 15 amino acid tau peptide, …; experiment: ELISA, biotinylated peptide on streptavidin plate
Experimental: as §1

[4] = target: T3, recombinant human 4R0N tau (human, UniProt P10636 2-758); experiment: SPR Biacore; antibody captured by anti-mouse antibody; tau as analyte; global 1:1 fit
T3 construct: also called recombinant 4R0N human tau; P10636-6
Experimental: Surface plasmon resonance (SPR) analysis using Biacore was performed by immobilizing an anti-mouse (GE Lifesciences) antibody to a CM3 chip with EDC/NHS. Antibodies were then captured to the anti-mouse surface to equivalent levels. Regeneration was performed with 2 30 s injections of 10 mM Glycine pH 1.7. Various concentrations ranging from 500 to 0.122 nM, diluted in […] dilutions, of recombinant human 4R0N tau were flowed over the sensor for a 150s association phase and 300 s dissociation phase. Data was blank subtracted to both an irrelevant sensor not containing test antibody to account for irrelevant binding to the prepared sensor surface, and to the mobile phase vehicle to account for the dissociation of test antibody from the anti-mouse capture. Data was then analyzed with onboard evaluation software using a global 1:1 fit.

human tau oligomers [5] = target: T4, human tau oligomers (human, UniProt P10636-6 2-383, limits assumed); experiment: cell-based or functional assay
human tau oligomers [6] = target: T4, human tau oligomers; experiment: cell-based or functional assay; remark: listed apart in the source

T4 sequence (P10636 other isoform, or with tags, fused parts or gaps limits assumed): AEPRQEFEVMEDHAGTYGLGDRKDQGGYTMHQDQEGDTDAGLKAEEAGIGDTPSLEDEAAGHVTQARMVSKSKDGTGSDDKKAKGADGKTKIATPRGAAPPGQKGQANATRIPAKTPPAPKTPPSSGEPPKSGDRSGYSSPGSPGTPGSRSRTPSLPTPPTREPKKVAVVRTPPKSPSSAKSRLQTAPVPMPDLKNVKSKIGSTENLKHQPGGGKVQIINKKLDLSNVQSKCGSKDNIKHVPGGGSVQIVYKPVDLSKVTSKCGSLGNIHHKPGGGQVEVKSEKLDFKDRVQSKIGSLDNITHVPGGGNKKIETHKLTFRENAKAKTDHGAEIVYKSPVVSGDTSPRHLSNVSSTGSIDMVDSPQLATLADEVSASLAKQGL
Chain of pHrodo-labeled tau P301L soluble oligomer, P10636 (P10636 other isoform, or with tags, fused parts or gaps P301L P301L): as the sequence (P10636 other isoform, or with tags, fused parts or gaps limits assumed) above
T3 sequence (P10636 other isoform, or with tags, fused parts or gaps limits assumed): as above

| Binder | binding result [2] | binding result [3] | Kd [4] [nM] | koff [4] [s⁻¹] | kon [4] [M⁻¹ s⁻¹] | LDH released by primary neurons with tau oligomers, antibody at 0.2 molar equivs (human tau oligomers [5]) | LDH released by primary neurons with tau oligomers, antibody at 0.33 molar equivs (human tau oligomers [5]) | LDH released by primary neurons with tau oligomers, antibody at 1 molar equivs (human tau oligomers [5]) | LDH released by primary neurons with tau oligomers, antibody at 3 molar equivs (human tau oligomers [5]) | LDH released by primary neurons with tau oligomers, antibody at 5 molar equivs (human tau oligomers [5]) | MTT viability of primary neurons with tau oligomers, antibody at 0.2 molar equivs (human tau oligomers [6]) | MTT viability of primary neurons with tau oligomers, antibody at 0.33 molar equivs (human tau oligomers [6]) | MTT viability of primary neurons with tau oligomers, antibody at 1 molar equivs (human tau oligomers [6]) | MTT viability of primary neurons with tau oligomers, antibody at 3 molar equivs (human tau oligomers [6]) | MTT viability of primary neurons with tau oligomers, antibody at 5 molar equivs (human tau oligomers [6]) | further results |
| --- | --- | --- | --- | --- | --- | --- | --- | --- | --- | --- | --- | --- | --- | --- | --- | --- |
| mouse 14H3 antibody (antibody, mouse IgG2a, V domains shown, here or on the partner: pHrodo label) VH: QVTLKESGPGILQPSQTLSLTCSFSGFSLSTYGMGVGWIRQPSGKGLEWLANIWWDDIKYYNAALKSRLTISKDTSKNQVFLKIASVDTADTATYYCARNVDYWGQGTTLTVSS VL: DVVMTQTPLSLPVSLGDQASISCRSSQSLVHSNGNTFLHWYLQKPGQSPKLLIYKVSNRFSGVPDRFSGSGSGTDFTLKISRVEAEDLGVYFCSQSTLVPWTFGGGTKLEIK |  |  |  |  |  |  |  |  |  |  |  |  |  |  |  | internalized pHrodo-tau in B103 cells (FACS), antibody at 0.061 µg/mL (% of maximum signal) [1]: 79.7; internalized pHrodo-tau in B103 cells (FACS), antibody at 0.244 µg/mL (% of maximum signal) [1]: 66; internalized pHrodo-tau in B103 cells (FACS), antibody at 0.98 µg/mL (% of maximum signal) [1]: 67.8; internalized pHrodo-tau in B103 cells (FACS), antibody at 3.9 µg/mL (% of maximum signal) [1]: 63.1; internalized pHrodo-tau in B103 cells (FACS), antibody at 15.625 µg/mL (% of maximum signal) [1]: 53.2; internalized pHrodo-tau in B103 cells (FACS), antibody at 62.5 µg/mL (% of maximum signal) [1]: 48.4 |
| mouse 12C4 antibody (antibody, mouse IgG2a, V domains shown, here or on the partner: pHrodo label) VH: EVQLQQSGAELVRPGASVKLSCTASGFNIKDDYMNWVRQRPERGLEWIGWIDPENGDTAYASKFQGKATMTADTSSNTAYLQFSSLTSEDSAVYYCTTSNGWGQGTLVTVSA VL: DIVMTQAAFSNPVTLGTSASISCRSSKSLLHSNGITYLYWYLQKPGQSPQLLIYQMSNLASGVPDRFSSSGSGTDFTLRISRVEAEDVGVYYCAQNLELPLTFGAGTKLELK |  |  |  |  |  |  |  |  |  |  |  |  |  |  |  | internalized pHrodo-tau in B103 cells (FACS), antibody at 0.061 µg/mL (% of maximum signal) [1]: 78.2; internalized pHrodo-tau in B103 cells (FACS), antibody at 0.244 µg/mL (% of maximum signal) [1]: 78.6; internalized pHrodo-tau in B103 cells (FACS), antibody at 0.98 µg/mL (% of maximum signal) [1]: 69.7; internalized pHrodo-tau in B103 cells (FACS), antibody at 3.9 µg/mL (% of maximum signal) [1]: 42.6; internalized pHrodo-tau in B103 cells (FACS), antibody at 15.625 µg/mL (% of maximum signal) [1]: 36.6; internalized pHrodo-tau in B103 cells (FACS), antibody at 62.5 µg/mL (% of maximum signal) [1]: 37.3 |
| mouse 10C12 antibody (antibody, mouse IgG2a, V domains shown, also called m10C12) VH: EVQLQQSGAELVRPGASVKLSCTASGFNIKDDYMNWVKQRPERGLEWIGWIDPENGDTEYASKFQGKATMTADTSSNTAYLQFSSLTSEDTAVYYCTTSNGWGQGTLVTVST VL: DIVMTQAAFSNPVTLGTSASISCRSSKSLLHSNGITYLYWYLQKPGQSPQLLIYQMSNLASGVPDRFSSSGSGTDFTLRISRVEAEDVGVYYCAQNLELPLTFGAGTKLELK | binds | binds | 0.375 | 0.00245 | 6.53e+06 | 140 % of control | 129 % of control | 109 % of control | 101 % of control | 95.1 % of control | 47.1 % of control | 51.3 % of control | 56.4 % of control | 69.2 % of control | 86.8 % of control |  |
| mouse 2D11 antibody (antibody, mouse IgG2a, V domains shown) VH: EVQLQQSGAELVRPGASVKLSCTASGFNIKDDYMNWVKQRPERGLEWIGWIDPENGDTEYASKFQGKATMTADTSSNTAYLQFSSLTSEDTAVYYCTTSNGWGQGTLVTVST VL: DIVMTQAAFSNPVTLGTSASISCRSSKSLLHSNGITYLYWYLQKPGQSPQLLIYQMSNLASGVPDRFSSSGSGTDFTLRISRVEAEDVGVYYCAQNLELPLTFGAGTKLELK | binds | binds | 0.318 | 0.00221 | 6.93e+06 | 177 % of control | 148 % of control | 131 % of control | 109 % of control | 115 % of control | 52.8 % of control | 59.5 % of control | 50.9 % of control | 64 % of control | 92.2 % of control |  |
| mouse 9F5 antibody (antibody, mouse IgG1, V domains shown, also called m9F5; murine 9F5) VH: EVQLQQSGAELVRPGASVKLSCTASGFNIKDDYMNWVKQRPERGLEWIGWIDPENGDTEYASKFQGKATMTADTSSNTAYLQFSSLTSEDTAVYYCTTSNGWGQGTLVTVST VL: DIVMTQAAFSNPVTLGTSASISCRSSKSLLHSNGITYLYWYLQKPGQSPQLLIYQMSNLASGVPDRFSSSGSGTDFTLRISRVEAEDVGVYYCAQNLELPLTFGAGTKLELK | binds | binds | 0.35 | 0.00224 | 6.39e+06 | 155 % of control | 152 % of control | 116 % of control | 95.9 % of control | 91.4 % of control | 47.4 % of control | 58 % of control | 64.9 % of control | 92.6 % of control | 93.1 % of control |  |
| mouse 12C4 antibody (antibody, mouse IgG2a, V domains shown, also called m12C4) VH: EVQLQQSGAELVRPGASVKLSCTASGFNIKDDYMNWVRQRPERGLEWIGWIDPENGDTAYASKFQGKATMTADTSSNTAYLQFSSLTSEDSAVYYCTTSNGWGQGTLVTVSA VL: DIVMTQAAFSNPVTLGTSASISCRSSKSLLHSNGITYLYWYLQKPGQSPQLLIYQMSNLASGVPDRFSSSGSGTDFTLRISRVEAEDVGVYYCAQNLELPLTFGAGTKLELK | binds | binds | 0.363 | 0.00206 | 5.69e+06 | 153 % of control | 152 % of control | 124 % of control | 110 % of control | 108 % of control | 48.6 % of control | 53.2 % of control | 62.3 % of control | 78.7 % of control | 81.1 % of control |  |
| mouse 14H3 antibody (antibody, mouse IgG2a, V domains shown, also called m14H3) VH: QVTLKESGPGILQPSQTLSLTCSFSGFSLSTYGMGVGWIRQPSGKGLEWLANIWWDDIKYYNAALKSRLTISKDTSKNQVFLKIASVDTADTATYYCARNVDYWGQGTTLTVSS VL: DVVMTQTPLSLPVSLGDQASISCRSSQSLVHSNGNTFLHWYLQKPGQSPKLLIYKVSNRFSGVPDRFSGSGSGTDFTLKISRVEAEDLGVYFCSQSTLVPWTFGGGTKLEIK | binds | binds | 0.202 | 0.00153 | 7.6e+06 |  |  |  |  |  |  |  |  |  |  |  |
| mouse 17C12 antibody (antibody, mouse IgG2a, V domains shown, also called m17C12) VH: KIQLQQSGAELVRPGASVKLSCTASAFNIKDDYMNWVKQRPERGLEWIGWIDPENGDTKYASKFQGKATMTADTSSNTAYLQLSSLTSEDTAVYYCTTSNGWGQGTLVTVSA VL: DVVMTQTPLTLSVTIGQPASISCTSSQSLLHSNRKTYLHWLLQRPGQSPKLLIYLVSKLESGVPDRFSGSGSGTDFTLKISRVEAEDLGVYYCLQTTHFPRTFGGGTKLEIK | binds | binds | 0.482 | 0.00194 | 4.03e+06 |  |  |  |  |  |  |  |  |  |  |  |
